Assay results taken from the supplement of paper PMC10899765.

What was measured:
Conditions in all cases: 20 nM; 72 h
MCF10A [1] = test: one-nucleolus phenotype percent effect (relative to siNT 0% and siNOL11 100%); higher = more cells with one nucleolus (ribosome biogenesis inhibition)
Experimental: (§1)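 After 72 h, cells were fixed and stained with Hoechst and anti-fibrillarin, and nucleoli per nucleus were counted with CellProfiler. Values are plate-adjusted percent effect for the one-nucleolus and 5+ nucleoli phenotypes, normalised to siNT (0%) and to the positive controls siNOL11 or siKIF11 (100%), as the mean of biological triplicates. Percent viability is the nuclei count relative to siNT.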

MCF10A [2] = test: 5+ nucleoli phenotype percent effect (relative to siNT 0% and siKIF11 100%); higher = more cells with five or more nucleoli
Experimental: as §1

MCF10A [3] = test: percent viability (nuclei count relative to siNT); higher = more viable cells
Experimental: as §1

Sequence	one-nucleolus phenotype percent effect (MCF10A [1])	5+ nucleoli phenotype percent effect (MCF10A [2])	percent viability (MCF10A [3])
CCAGGAGAUCCAGAGAGAAU [hsa-miR-4768-3p]	0.373%	1.69%	32.6%
CCAGGAGGCGGAGGAGGUGGAG [hsa-miR-4459]	9.39%	-0.862%	64.6%
CCAGGCUCUGCAGUGGGA [hsa-miR-3155b]	-8.6%	29.5%	65.5%
CCAGGCUCUGCAGUGGGAACU [hsa-miR-3155a]	-2.13%	30.4%	32.5%
CCAGGGAGGCUGGUUUGGAGGA [hsa-miR-6754-5p]	22.6%	-21.9%	38%
CCAGGGGGAUGGGCGAGCUUGGG [hsa-miR-6798-5p]	-16.7%	13.9%	77.9%
CCAGUAUUAACUGUGCUGCUGA [hsa-miR-16-1-3p]	7.96%	-19.3%	85.1%
CCAGUCCUGUGCCUGCCGCCU [hsa-miR-1910]	3.9%	6.81%	100%
CCAGUGACUGAGCUGGAGCCA [hsa-miR-5190]	29.3%	-11.4%	31.7%
CCAGUGGGGCUGCUGUUAUCUG [hsa-miR-194-3p]	-11.8%	10.5%	138%
CCAGUGUGGCUCAGCGAG [hsa-miR-4302]	18.9%	-22.9%	28.8%
CCAGUUACCGCUUCCGCUACCGC [hsa-miR-935]	15.8%	-23.4%	59%
CCAGUUUUCCCAGGAUU [hsa-miR-4328]	-38.7%	62.6%	108%
CCAUGAAGCAGUGGGUAGGAGGAC [hsa-miR-8060]	6.65%	14.9%	43.2%
CCAUGGAUCUCCAGGUGGGU [hsa-miR-490-5p]	0.865%	16.2%	63.5%
CCCAAUACACGGUCGACCUCUU [hsa-miR-323b-3p]	-23.7%	68.7%	77.6%
CCCAGAUAAUGGCACUCUCAA [hsa-miR-488-5p]	-5.8%	32.8%	50.9%
CCCAGCAGGACGGGAGCG [hsa-miR-4530]	-26.2%	43.3%	111%
CCCAGGGCUUGGAGUGGGGCAAGGUU [hsa-miR-4685-5p]	9.96%	15%	69.2%
CCCAGUGUUCAGACUACCUGUUC [hsa-miR-199a-5p]	4.51%	-30.3%	68.8%
CCCAGUGUUUAGACUAUCUGUUC [hsa-miR-199b-5p]	-14.4%	26.5%	170%
CCCAUCACCUUUCCGUCUCCCCU [hsa-miR-6884-3p]	-25.5%	50.9%	70.3%
CCCAUGCCUCCUGCCGCGGUC [hsa-miR-6872-3p]	17.4%	-8.71%	48%

Sequence	one-nucleolus phenotype percent effect (MCF10A [1])	5+ nucleoli phenotype percent effect (MCF10A [2])	percent viability (MCF10A [3])
CCCCAGGGCGACGCGGCGGG [hsa-miR-1915-3p]	-13.1%	42.5%	87.8%
CCCCGCCACCGCCUUGG [hsa-miR-4258]	-17.4%	29.4%	54.5%
CCCCGGGAACGUCGAGACUGGAGC [hsa-miR-1247-3p]	41.2%	-15.3%	17.1%
CCCCGGGGAGCCCGGCG [hsa-miR-4532]	-24.8%	45.2%	148%
CCCCGGUGUUGGGGCGCGUCUGC [hsa-miR-4783-3p]	-13%	13.9%	49.5%
CCCCUGGGCCGGCCUUGG [hsa-miR-4292]	4.18%	31.4%	26.6%
CCCCUGGGGCUGGGCAGGCGGA [hsa-miR-6791-5p]	-13.7%	45.9%	107%
CCCGCAGGUGAGAUGAGGGCU [hsa-miR-6886-5p]	9.43%	-23.1%	28.8%
CCCGGACAGGCGUUCGUGCGACGU [hsa-miR-3687]	-20.6%	26.3%	86.1%
CCCGGAGCCAGGAUGCAGCUC [hsa-miR-1203]	-10.2%	4.95%	68.6%
CCCGGCCGGAACGCCGCACU [hsa-miR-6850-3p]	-20.3%	23.1%	65.7%
CCCUCAUCUUCCCCUCCUUUC [hsa-miR-6891-3p]	36.8%	-10.8%	35.9%
CCCUCUCUGGCUCCUCCCCAAA [hsa-miR-4723-3p]	-23.7%	50.7%	114%
CCCUCUCUGUCCCACCCAUAG [hsa-miR-6769b-3p]	-27.6%	91.5%	73.7%
CCCUGAGACCCUAACCUUAA [hsa-miR-4324]	-27%	38.6%	84%
CCCUGCUGCCUUCACCUGCCAG [hsa-miR-6893-3p]	-5.77%	-2.09%	50.3%
CCCUGGGCCUCUGCUCCCCAG [hsa-miR-939-3p]	17.1%	-13%	31.6%
CCCUGGGGUUCUGAGGACAUG [hsa-miR-6852-5p]	8.28%	29%	32.3%
CCCUGUGCCCGGCCCACUUCUG [hsa-miR-1914-5p]	-13.8%	1.43%	90.2%
CCCUGUUCUAUGCCCUGAGGGA [hsa-miR-1266-3p]	-19.3%	47.8%	90.7%
CCCUUCCCUCACUCUUCUCUCAG [hsa-miR-6734-3p]	-3.15%	13.3%	44.4%
CCCUUGGGUCUGAUGGGGUAG [hsa-miR-3189-3p]	15.4%	-6.22%	25.3%
